In patent US20230051847A1 (Johns Hopkins, published 2023):

B1: H/R/N RAS Q61R_A1_cl19 (scFv)
scFv: DIQMTQSPSSLSASVGDRVTITCRASQDVNTAVAWYQQKPGKAPKLLIYSASFLYSGVPSRFSGSRSGTDFTLTISSLQPEDFATYYCQQLMYDPITFGQGTKVEIKRTGGGSGGGGSGGGASEVQLVESGGGLVQPGGSLRLSCAASGFNFGTYWMHWVRQAPGKGLEWVAWFLPDYDYTLYADSVKGRFTISADTSKNTAYLQMNSLRAEDTAVYYCSRHGEYAFDYWGQGTLVTVSS
B2: H/R/N RAS Q61R_A1_cl1 (scFv)
scFv: DIQMTQSPSSLSASVGDRVTITCRASQDVNTAVAWYQQKPGKAPKLLIYSASFLYSGVPSRFSGSRSGTDFTLTISSLQPEDFATYYCQQSYTSPLTFGQGTKVEIKRTGGGSGGGGSGGGASEVQLVESGGGLVQPGGSLRLSCAASGFNIYYGVMHWVRQAPGKGLEWVAMIYPDSSWTYYADSVKGRFTISADTSKNTAYLQMNSLRAEDTAVYYCSRDQDFHYMNYYLSYALDYWGQGTLVTVSS
notes: also called H/K/N RAS Q61R(55-64)-A1 cl.1
B3: H/R/N RAS Q61R_A1_cl2 (scFv)
scFv: DIQMTQSPSSLSASVGDRVTITCRASQDVNTAVAWYQQKPGKAPKLLIYSASFLYSGVPSRFSGSRSGTDFTLTISSLQPEDFATYYCQQYWYYYPITFGQGTKVEIKRTGGGSGGGGSGGGASEVQLVESGGGLVQPGGSLRLSCAASGFNIYSYDMHWVRQAPGKGLEWVAISPGGSYTYYADSVKGRFTISADTSKNTAYLQMNSLRAEDTAVYYCSRSAFTGYFDVWGQGTLVTVSS
B4: H/R/N RAS Q61R_A1_cl13 (scFv)
scFv: DIQMTQSPSSLSASVGDRVTITCRASQDVNTAVAWYQQKPGKAPKLLIYSASFLYSGVPSRFSGSRSGTDFTLTISSLQPEDFATYYCQQYSYDPITFGQGTKVEIKRTGGGSGGGGSGGGASEVQLVESGGGLVQPGGSLRLSCAASGFNFSYSAMHWVRQAPGKGLEWVADVVPDGDWTYYADSVKGRFTISADTSKNTAYLQMNSLRAEDTAVYYCSRGWYALDYWGQGTLVTVSS
B5: H/R/N RAS Q61R_A1_cl5 (scFv)
scFv: DIQMTQSPSSLSASVGDRVTITCRASQDVNTAVAWYQQKPGKAPKLLIYSASFLYSGVPSRFSGSRSGTDFTLTISSLQPEDFATYYCQQYYLYQPITFGQGTKVEIKRTGGGSGGGGSGGGASEVQLVESGGGLVQPGGSLRLSCAASGFNIGMYTMHWVRQAPGKGLEWVALVYPDSGYTNYADSVKGRFTISADTSKNTAYLQMNSLRAEDTAVYYCSRYTWQSMDYWGQGTLVTVSS
B6: H/R/N RAS Q61R_A1_cl3 (scFv)
scFv: DIQMTQSPSSLSASVGDRVTITCRASQDVNTAVAWYQQKPGKAPKLLIYSASFLYSGVPSRFSGSRSGTDFTLTISSLQPEDFATYYCQQSYYAPITFGQGTKVEIKRTGGGSGGGGSGGGASEVQLVESGGGLVQPGGSLRLSCAASGFNVQWSHMHWVRQAPGKGLEWVARLSPPSGYTNYADSVKGRFTISADTSKNTAYLQMNSLRAEDTAVYYCSRLILSKGGYGWAMDYWGQGTLVTVSS
B7: H/R/N RAS Q61R_A1_cl7 (scFv)
scFv: DIQMTQSPSSLSASVGDRVTITCRASQDVNTAVAWYQQKPGKAPKLLIYSASFLYSGVPSRFSGSRSGTDFTLTISSLQPEDFATYYCQQYASDPITFGQGTKVEIKRTGGGSGGGGSGGGASEVQLVESGGGLVQPGGSLRLSCAASGFNLDYGWMHWVRQAPGKGLEWVAWVVPGSDYTDYADSVKGRFTISADTSKNTAYLQMNSLRAEDTAVYYCSRFHYTAFDVWGQGTLVTVSS
B8: H/R/N RAS Q61R_A1_cl18 (scFv)
scFv: DIQMTQSPSSLSASVGDRVTITCRASQDVNTAVAWYQQKPGKAPKLLIYSASFLYSGVPSRFSGSRSGTDFTLTISSLQPEDFATYYCQQYIYDPVTFGQGTKVEIKRTGGGSGGGGSGGGASEVQLVESGGGLVQPGGSLRLSCAASGFNVDWAWMHWVRQAPGKGLEWVAWVVGGSDYTYYADSVKGRFTISADTSKNTAYLQMNSLRAEDTAVYYCSRSYYYAFDYWGQGTLVTVSS
B9: H/K/N RAS Q61H_A1_cl8 (scFv)
scFv: DIQMTQSPSSLSASVGDRVTITCRASQDVNTAVAWYQQKPGKAPKLLIYSASFLYSGVPSRFSGSRSGTDFTLTISSLQPEDFATYYCQQSFSTPITFGQGTKVEIKRTGGGSGGGGSGGGASEVQLVESGGGLVQPGGSLRLSCAASGFNISEYLMHWVRQAPGKGLEWVALLPPGLSYTNYADSVKGRFTISADTSKNTAYLQMNSLRAEDTAVYYCSRYGYYAFDYWGQGTLVTVSS
B10: H/K/N RAS Q61H_A1_cl9 (scFv)
scFv: DIQMTQSPSSLSASVGDRVTITCRASQDVNTAVAWYQQKPGKAPKLLIYSASFLYSGVPSRFSGSRSGTDFTLTISSLQPEDFATYYCQQGEYSPLTFGQGTKVEIKRTGGGSGGGGSGGGASEVQLVESGGGLVQPGGSLRLSCAASGFNVFESAMHWVRQAPGKGLEWVAWVYGSYDYTYYADSVKGRFTISADTSKNTAYLQMNSLRAEDTAVYYCSRSFAYFQAMDYWGQGTLVTVSS
B11: H/K/N RAS Q61H_A1_cl5 (scFv)
scFv: DIQMTQSPSSLSASVGDRVTITCRASQDVNTAVAWYQQKPGKAPKLLIYSASFLYSGVPSRFSGSRSGTDFTLTISSLQPEDFATYYCQQSSYSPWTFGQGTKVEIKRTGGGSGGGGSGGGASEVQLVESGGGLVQPGGSLRLSCAASGFNISPWDMHWVRQAPGKGLEWVAQLYPSSGYTNYADSVKGRFTISADTSKNTAYLQMNSLRAEDTAVYYCSRSVYWSLDYWGQGTLVTVSS
B12: H/K/N RAS Q61L_A1_cl3 (scFv)
scFv: DIQMTQSPSSLSASVGDRVTITCRASQDVNTAVAWYQQKPGKAPKLLIYSASFLYSGVPSRFSGSRSGTDFTLTISSLQPEDFATYYCQQTSSYPITFGQGTKVEIKRTGGGSGGGGSGGGASEVQLVESGGGLVQPGGSLRLSCAASGFNIYWYGMHWVRQAPGKGLEWVAQVYPWSGFTYYADSVKGRFTISADTSKNTAYLQMNSLRAEDTAVYYCSRDYYSYSLDYWGQGTLVTVSS
B13: H/K/N RAS Q61L_A1_cl6 (scFv)
scFv: DIQMTQSPSSLSASVGDRVTITCRASQDVNTAVAWYQQKPGKAPKLLIYSASFLYSGVPSRFSGSRSGTDFTLTISSLQPEDFATYYCQQSYYSPWTFGQGTKVEIKRTGGGSGGGGSGGGASEVQLVESGGGLVQPGGSLRLSCAASGFNISYSNIHWVRQAPGKGLEWVAMIYGTRGGTYYADSVKGRFTISADTSKNTAYLQMNSLRAEDTAVYYCSRYYSYAMDYWGQGTLVTVSS
B14: H/K/N RAS Q61L_A1_cl7 (scFv)
scFv: DIQMTQSPSSLSASVGDRVTITCRASQDVNTAVAWYQQKPGKAPKLLIYSASFLYSGVPSRFSGSRSGTDFTLTISSLQPEDFATYYCQQAYYPPWTFGQGTKVEIKRTGGGSGGGGSGGGASEVQLVESGGGLVQPGGSLRLSCAASGFNVSRWAMHWVRQAPGKGLEWVARVYPSGYLTYYADSVKGRFTISADTSKNTAYLQMNSLRAEDTAVYYCSRNMQSYMDYWGQGTLVTVSS
B15: H/K/N RAS Q61L_A1_cl8 (scFv)
scFv: DIQMTQSPSSLSASVGDRVTITCRASQDVNTAVAWYQQKPGKAPKLLIYSASFLYSGVPSRFSGSRSGTDFTLTISSLQPEDFATYYCQQSYSSGPVTFGQGTKVEIKRTGGGSGGGGSGGGASEVQLVESGGGLVQPGGSLRLSCAASGFNFSYGGIHWVRQAPGKGLEWVAMIYPLTGYTNYADSVKGRFTISADTSKNTAYLQMNSLRAEDTAVYYCSRDYYYSVDVWGQGTLVTVSS
B16: H/K/N RAS Q61L_A1_cl4 (scFv)
scFv: DIQMTQSPSSLSASVGDRVTITCRASQDVNTAVAWYQQKPGKAPKLLIYSASFLYSGVPSRFSGSRSGTDFTLTISSLQPEDFATYYCQQSWYSPSTFGQGTKVEIKRTGGGSGGGGSGGGASEVQLVESGGGLVQPGGSLRLSCAASGFNISASGMHWVRQAPGKGLEWVAWIWGGSSYTYYADSVKGRFTISADTSKNTAYLQMNSLRAEDTAVYYCSRGQYLSYMDYWGQGTLVTVSS
B17: H/K/N RAS Q61L_A1_cl1 (scFv)
scFv: DIQMTQSPSSLSASVGDRVTITCRASQDVNTAVAWYQQKPGKAPKLLIYSASFLYSGVPSRFSGSRSGTDFTLTISSLQPEDFATYYCQQASRQPYTFGQGTKVEIKRTGGGSGGGGSGGGASEVQLVESGGGLVQPGGSLRLSCAASGFNFSESGMHWVRQAPGKGLEWVAHFSGDSGYTYYADSVKGRFTISADTSKNTAYLQMNSLRAEDTAVYYCSRYMYYSGYFDYWGQGTLVTVSS
B18: H/K/N RAS Q61L_A1_cl10 (scFv)
scFv: DIQMTQSPSSLSASVGDRVTITCRASQDVNTAVAWYQQKPGKAPKLLIYSASFLYSGVPSRFSGSRSGTDFTLTISSLQPEDFATYYCQQSYYPYYPWTFGQGTKVEIKRTGGGSGGGGSGGGASEVQLVESGGGLVQPGGSLRLSCAASGFNVSHSAMHWVRQAPGKGLEWVATVHPDWGNTYYADSVKGRFTISADTSKNTAYLQMNSLRAEDTAVYYCSRWQQYYYSFDYWGQGTLVTVSS
B19: H/K/N RAS Q61L_A1_cl11 (scFv)
scFv: DIQMTQSPSSLSASVGDRVTITCRASQDVNTAVAWYQQKPGKAPKLLIYSASFLYSGVPSRFSGSRSGTDFTLTISSLQPEDFATYYCQQYDRPITFGQGTKVEIKRTGGGSGGGGSGGGASEVQLVESGGGLVQPGGSLRLSCAASGFNIYYEAMHWVRQAPGKGLEWVAQIYPWNDYTYYADSVKGRFTISADTSKNTAYLQMNSLRAEDTAVYYCSRNYYAATMDYWGQGTLVTVSS
B20: H/K/N RAS Q61L_A1_cl9 (scFv)
scFv: DIQMTQSPSSLSASVGDRVTITCRASQDVNTAVAWYQQKPGKAPKLLIYSASFLYSGVPSRFSGSRSGTDFTLTISSLQPEDFATYYCQQTYYYPFTFGQGTKVEIKRTGGGSGGGGSGGGASEVQLVESGGGLVQPGGSLRLSCAASGFNLYAWGMHWVRQAPGKGLEWVALVYGGWGSTSYADSVKGRFTISADTSKNTAYLQMNSLRAEDTAVYYCSRAGSSKMSAGAFDYWGQGTLVTVSS

Each binder was assayed against T1, RAS Q61WT[55-64] pHLA-A1 (human) (assay: flow cytometry: scFv phage supernatant on peptide-pulsed SigM5 cells (HLA-A1+), median fluorescence intensity).
T1 construct: also called Q61WT pHLA-A1; H/K/N RAS WT(55-64) peptide on HLA-A1
B1: no binding.
B2: no binding.
B3: no binding.
B4: no binding.
B5: no binding.
B6: no binding.
B7: no binding.
B8: no binding.

Target: T1, RAS Q61WT[55-64] pHLA-A1
Assay: as above
Remark: another data set of the same source
B9: no binding.
B10: no binding.
B11: no binding.

Target: T1, RAS Q61WT[55-64] pHLA-A1
Assay: as above
Remark: another data set of the same source
B12: no binding.
B13: no binding.
B14: no binding.
B15: no binding.
B16: no binding.
B17: no binding.
B18: no binding.
B19: no binding.
B20: no binding.
